This test concerns the target human Trop-2 (human) (UniProt P09758). Put plainly: cell binding assay, cell line not named.

pKd: −log10 of the molar value.

The values below come from patent US20180280532A1.

For orientation: pKd means −log10 of the Kd, conventionally taken in molar units. Lower therefore signals a high Kd.

human Trop-2 (human), sequence (P09758 27-323): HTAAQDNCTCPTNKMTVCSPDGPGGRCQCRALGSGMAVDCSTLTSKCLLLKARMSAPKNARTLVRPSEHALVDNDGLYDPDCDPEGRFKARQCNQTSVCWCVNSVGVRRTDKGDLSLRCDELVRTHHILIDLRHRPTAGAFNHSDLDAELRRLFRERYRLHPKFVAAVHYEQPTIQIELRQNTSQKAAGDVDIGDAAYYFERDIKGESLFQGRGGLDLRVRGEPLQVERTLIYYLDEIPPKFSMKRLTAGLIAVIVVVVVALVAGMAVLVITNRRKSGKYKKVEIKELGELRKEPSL

hRS7-CL2A-SN-38 (antibody): the negative logarithm of the Kd (pKd) was 8.92.
